According to patent publication US12356911B2, “Group of UDP-glycosyltransferase for catalyzing carbohydrate chain elongation and application thereof” (GSYNBIOT (SHANGHAI) CO., LTD, priority 2017, dated 2025):

What was measured:
Type in all cases: biochemical
[1] = In vitro transglycosylation at C-3, Rh2 as glycosyl acceptor, UDP-glucose as donor; conditions: crude enzyme (E. coli lysate supernatant); TLC, FIG. 13, FIG. 15
Text: (§1) Cell lysate of recombinant E. coli with empty vector pET28a was used as a control.

[2] = In vitro transglycosylation at C-20, CK as glycosyl acceptor, UDP-glucose as donor; conditions: crude enzyme (E. coli lysate supernatant); TLC/HPLC, FIG. 2, 3, 12, 16
Text: as §1
As shown in FIG. 16: Protopanaxadiol Ginsenoside CK is used as a glycosyl acceptor, and UDP-glucose is used as a glycosyl donor.

[3] = In vitro transglycosylation at C-20, Rd as glycosyl acceptor, UDP-glucose as donor; conditions: crude enzyme (E. coli lysate supernatant); TLC/HPLC, FIG. 2, 3, 11
Text: as §1

[4] = In vitro transglycosylation at C-6, Rg1 as glycosyl acceptor, UDP-xylose as donor; conditions: crude enzyme (E. coli lysate supernatant); TLC and HPLC, FIG. 7-9

B1: PNUGT29-8: Panax notoginseng glycosyltransferase, 447 amino acids, SEQ ID NO: 53 (protein)
chain: MDIEKGRISIVMLPFLAHGHISPFFELAKHLSKRNCNIFLCSTPINLSSIKNRVSDKDSSASIKLVELHLPSSPDLPPQYHTTNGLPSHLMVPLKNAFETVGPTFSEILKTLDPDLLIYDFNPSWAPEIALSHNIPAVYFLTSAAATSSVALRALKNPGEKYPFPDFYDNSNITPEPPSADKMKLFHDFVACFKRSCDIILIKSFRELEGKYIDLLSTLSKKTLVPVGPLVQDPLGHDEDPKTGHLINWLDKRAESTVVFVCFGSEYFPSNEELEEVAIGLEISMVNFILAVRFLEGEKKGVLPEGFVQRVGDRGLVVEGWAPQARILGHSSTGGFVSHCGWSSIMESVKFGVPVIAMARHLDQPLNAKLAAGVGVGMEVVRDENGKYKREAIAEVIRKVVMEKNGEVIRRKARELSEKMKETGEQEIGRAVEELVQICKMKKDAQY
modifications: Panax notoginseng
[1]
  product formation from Rh2 and UDP-glucose (Rg3): can catalyze the extension of a glucosyl at the C-3 glycosyl of Rh2 to generate Rg3
[2]
  product formation from CK and UDP-glucose (Gypenoside LXXV): can catalyze the extension of a glucosyl at the C-20 glycosyl to generate Gypenoside LXXV
[3]
  product formation from Rd and UDP-glucose (Rb1): can catalyze the extension of a glucosyl at the C-20 glycosyl of Rd to generate Rb1

B2: PNUGT29-9: Panax notoginseng glycosyltransferase, 447 amino acids, SEQ ID NO: 55 (protein)
chain: MDIEKGRISIVMLPFLAHGHISPFLELAKHLSKRNCNIFLCSTPINLSSIKNRVSDKDSSASIKLVELHLPSSPDLPPQYHTTNGLPSHLMVPLKNAFETVGPTFSEILKTLDPDLLIYDFNPSWAPEIALSHNIPAVYFLTSAAATSSVALRALKNPGEKYPFPDFYDNSNITPEPPSADKMKLFHDFVACFKRSCDIILIKSFRELEGKYIDLLSTLSKKTLVPVGPLVQDPLGHDEDPKTGHLINWLDKRAESTVVFVCFGSEYFPSNEELEEVAIGLEISMVNFILAVRFLEGEKKGVLPEGFVQRVGDRGLVVEGWAPQARILGHSSTGGFVSHCGWSSIMESVKFGVPVIAMARHLDQPLNAKLAAEVGVGMEVVRDENGKYKREAIAEVIRKVVMEKNGEVIRRKARELSEKMKETGEQEIGRAVEELVQICKMKKDAQY
modifications: Panax notoginseng
[1]
  product formation from Rh2 and UDP-glucose (Rg3): can catalyze the extension of a glucosyl at the C-3 glycosyl of Rh2 to generate Rg3
[2]
  product formation from CK and UDP-glucose (Gypenoside LXXV): can catalyze the extension of a glucosyl at the C-20 glycosyl to generate Gypenoside LXXV
[3]
  product formation from Rd and UDP-glucose (Rb1): can catalyze the extension of a glucosyl at the C-20 glycosyl of Rd to generate Rb1

B3: GT29-4: Ginseng UDP-glycosyltransferase, 446 amino acids, SEQ ID NO: 12 (protein)
chain: MDNQEGRISIALLPFLAHGHISPFFELAKHLSKRNCNIFLCSTPINLSSIKNRISDKDSSASIKLVELHLPSSPDLPPHYHTTNGLPSHLMVPLRNAFETAAPTFSEILKTLNPDLLIYDFNPSWAPEIASSHNIPAVCFIIGGAASFSMSLHSFKNPGEKYPFLDFDDNSNITPEPPSADNMKLLLDFMTCFERSCDIILIKSFRELEGKYFDFYSTLSDKTLVPVGPLVQDPMGHNEDPKTEQFINWLDKRAESTVVFVCFGSEYFLSNEELEEVAIGLEISMVNFIWAVRLIEGEKKGVLPEGFVQRVGDRGLVVEGWAPQARILGHSSTGGFVSHCGWSSITESMKFGVPVIAMARHLDQPLNGKLAAEVGVGMEVVRDENGKYKREGIAEVIRKVVVEKSGEVMRRKARELSEKMKEKGEEEIDRAVEELVQICKKKKDAQ
modifications: misc_feature - GT29-4; Panax ginseng
[4]
  product formation from Rg1 and UDP-xylose (notoginsenoside R1): can catalyze the formation of Notoginsenoside RI
